Results reported in patent US12697371B2, “Method for preventing, treating or delaying myocardial damage using neuregulin and composition” (ZENSUN (SHANGHAI) SCIENCE & TECHNOLOGY, CO., LTD., priority 2019, dated 2026).
“Also recorded” adds a separate entry of the source.

Tested on: rats with acute myocardial infarction caused by left coronary artery ligation
Assay: Echocardiography, rat acute myocardial infarction (left coronary artery ligation), 60-day subcutaneous NRG at different doses (Example 1)
Format: in vivo, Wistar rats
Details: for EF / LVEDd / LVEDs: 3 times a day
Description: 5.1 Establishment of a Rat Model of Heart Failure Caused by Coronary Artery Ligation
The rats were anesthetized with isoflurane through a gaseous anesthesia apparatus. Then, the rats were fixed in a supine position. After chest hair removal, the skin was disinfected with 75% alcohol. After the incision of the left anterior chest skin, the thoracic muscles were bluntly separated, with the 4th and 5th ribs exposed. Hemostatic forceps were used to bluntly cut off the muscle between the 4th and 5th ribs. Both hands were used to squeeze the heart out of the thoracic cavity so that the heart should be fully exposed for observation of lung inflation and heartbeats. The left atrial appendage and pulmonary conus were fully exposed to ligate the left anterior descending coronary artery (LADCA) with surgical suture between them. […] Then, the thoracic muscles and skin were sutured. After surgery, the rats were put back into the cages for feeding and close observations.
Administration began on the day following the animal model establishment of myocardial infarction.
After being anesthetized with 4% isoflurane, the rats were fixed onto the operating board in the left lateral recumbent position. The head of the rats was fixed in the breathing mask of the gaseous anesthesia machine, with isoflurane used for maintenance of anesthesia. After chest hair removal, the skin was disinfected with 75% alcohol and coated with a coupling agent. An echocardiography probe was used to detect any echo signal from the left ventricle of the rats. The left ventricular end-diastolic diameter and left ventricular end-systolic diameter (D) were measured. The left ventricular end-diastolic volume (EDV) and end-systolic volume (ESV) were calculated. Also, the ejection fraction (EF) value was found, EF=(EDV−ESV)/EDV*100%.

B1: NRG: fragment of the NRG-1β2 isomer, 177-237 amino acid fragment containing an EGF-like domain (SEQ ID NO: 1); developed by Zensun (protein, listed as Homo sapiens)
chain: SHLVKCAEKEKTFCVNGGECFMVKDLSNPSRYLCKCPNEFTGDRCQNYVMASFYKAEELYQ
EF (DAY 20, 3.75 μg/kg/D sc): 39.7 ± 10.84% | LVEDd (DAY 20, 3.75 μg/kg/D sc): 0.937 ± 0.06 cm | LVEDs (DAY 20, 3.75 μg/kg/D sc): 0.777 ± 0.08 cm | EF (DAY 20, 7.5 μg/kg/D sc): 41.9 ± 15.17% | LVEDd (DAY 20, 7.5 μg/kg/D sc): 0.924 ± 0.05 cm | LVEDs (DAY 20, 7.5 μg/kg/D sc): 0.756 ± 0.08 cm | EF (DAY 20, 15 μg/kg/D sc): 40.6 ± 9.15% | LVEDd (DAY 20, 15 μg/kg/D sc): 0.908 ± 0.05 cm | LVEDs (DAY 20, 15 μg/kg/D sc): 0.759 ± 0.08 cm | EF (DAY 40, 3.75 μg/kg/D sc): 40.4 ± 12.86% | LVEDd (DAY 40, 3.75 μg/kg/D sc): 0.982 ± 0.09 cm | LVEDs (DAY 40, 3.75 μg/kg/D sc): 0.813 ± 0.13 cm | EF (DAY 40, 7.5 μg/kg/D sc): 40.5 ± 13.39% | LVEDd (DAY 40, 7.5 μg/kg/D sc): 0.946 ± 0.08 cm | LVEDs (DAY 40, 7.5 μg/kg/D sc): 0.782 ± 0.12 cm | EF (DAY 40, 15 μg/kg/D sc): 42.2 ± 11.27% | LVEDd (DAY 40, 15 μg/kg/D sc): 0.946 ± 0.08 cm | LVEDs (DAY 40, 15 μg/kg/D sc): 0.775 ± 0.11 cm | EF (DAY 60, 3.75 μg/kg/D sc): 37.0±12.23% | LVEDd (DAY 60, 3.75 μg/kg/D sc): 0.994±0.08 cm | LVEDs (DAY 60, 3.75 μg/kg/D sc): 0.839±0.12 cm | EF (DAY 60, 7.5 μg/kg/D sc): 38.4±12.17% | LVEDd (DAY 60, 7.5 μg/kg/D sc): 0.965±0.07 cm | LVEDs (DAY 60, 7.5 μg/kg/D sc): 0.808±0.11 cm | EF (DAY 60, 15 μg/kg/D sc): 42.9±11.32% | LVEDd (DAY 60, 15 μg/kg/D sc): 0.975±0.07 cm | LVEDs (DAY 60, 15 μg/kg/D sc): 0.794±0.10 cm | Cardiac function / EF value compared with the control group (high-, middle- and low-dose groups (15, 7.5, 3.75 μg/kg/D sc), after 60 days of continuous administration): all improved; also recorded: higher than that of the control group | LVEDd and LVEDs compared with the excipient group (high-dose group (15 μg/kg/D sc), 60 days): could be reduced
